Results reported in PMC6186450.

Target: Human Plasma Fibronectin (human)
Experiment: ITC

10 kDa PEG-FUD (peptide) showed a Kd of 4.6 nM.

Substance 20 kDa PEG-FUD (peptide) has a Kd of 10 nM and a stoichiometry N of 1.63.

40 kDa PEG-FUD (peptide) showed a Kd of 14.7 nM and a dH of -32.5 kcal/mol.

“Functional Upstream Domain (FUD) peptide” gave a Kd of 6 nM.
